Reference: patent US20140378536A1 (VALTED, published 2014)

Molecular target: T1, FLAG-tagged PARIS (full-length PARIS, ZNF746, in pCMV-Tag2A) (human, UniProt Q6NUN9 1-644)
T1 construct: Expressed in SH-SY5Y cells from cDNA IMAGE:30347892; The construct limits it prints (1-644, 322-644) match the 644-residue human entry; also called FLAG-PARIS; pCMV-FLAG-PARIS; not shown: N-terminal FLAG tag of vector pCMV-Tag2A
Test: co-immunoprecipitation, IP of FLAG-PARIS (FIG. 20)
Experimental: For co-immunoprecipitation from cell cultures, SH-SY5Y cells were transfected with 2 μg of each plasmid, unless otherwise indicated.

T1 sequence (Q6NUN9 whole entry): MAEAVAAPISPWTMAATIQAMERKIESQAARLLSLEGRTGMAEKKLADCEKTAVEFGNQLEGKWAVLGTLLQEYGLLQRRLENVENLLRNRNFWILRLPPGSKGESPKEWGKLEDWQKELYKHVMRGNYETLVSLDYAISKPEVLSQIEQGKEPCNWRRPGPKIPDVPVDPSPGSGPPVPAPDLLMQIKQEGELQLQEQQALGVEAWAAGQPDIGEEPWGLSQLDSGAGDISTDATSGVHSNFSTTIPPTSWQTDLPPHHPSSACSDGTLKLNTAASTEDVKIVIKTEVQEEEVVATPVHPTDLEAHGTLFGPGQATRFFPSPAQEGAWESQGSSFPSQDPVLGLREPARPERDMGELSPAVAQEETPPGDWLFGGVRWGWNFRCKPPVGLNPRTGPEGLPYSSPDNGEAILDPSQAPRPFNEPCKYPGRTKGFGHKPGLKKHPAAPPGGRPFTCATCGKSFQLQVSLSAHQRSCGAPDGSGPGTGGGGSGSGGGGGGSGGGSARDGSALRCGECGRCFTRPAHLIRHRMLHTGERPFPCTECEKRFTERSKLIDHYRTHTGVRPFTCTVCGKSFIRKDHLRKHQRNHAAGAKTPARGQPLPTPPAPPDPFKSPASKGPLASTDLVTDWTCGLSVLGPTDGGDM

B1: HA-tagged parkin truncation, amino acids 1-198 (UBL-SH) (other, UniProt O60260 1-198, looked up)
chain: MIVFVRFNSSHGFPVEVDSDTSIFQLKEVVAKRQGVPADQLRVIFAGKELRNDWTVQNCDLDQQSIVHIVQRPWRKGQEMNATGGDDPRNAAGGCEREPQSLTRVDLSSSVLPGDSVGLAVILHTDSRKDSPPAGSPAGRSIYNSFYVYCKGPCQRVQPGKLRVQCSTCRQATLTLTQGPSCWDDVLIPNRMSGECQS
notes: range 1-198; also called N-terminal UBL-SH domain; not shown: HA tag of vector pRK5-HA
B1: no binding.
